Where no end group is shown, it is not given here. [ ]: non-standard residue; d: D form. pS = N[C@@H](COP(=O)(O)O)C(=O)O
T1: TAZ2 domain (residues 1764–1855) of wild-type mouse CBP (mouse, UniProt P45481 1764-1855)
T1 sequence (looked up): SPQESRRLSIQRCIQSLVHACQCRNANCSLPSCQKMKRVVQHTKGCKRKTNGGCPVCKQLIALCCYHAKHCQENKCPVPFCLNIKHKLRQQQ

B1: HPV16 E7(1–51), unphosphorylated (domain or fragment)
chain: MHGDTPTLHEYMLDLQPETTDLYCYEQLNDSSEEEDEIDGPAGQAEPDRAH
B2: E7(1–51) C24A/A50C labeled with Alexa fluor 594, unphosphorylated (domain or fragment)
chain: MHGDTPTLHEYMLDLQPETTDLYAYEQLNDSSEEEDEIDGPAGQAEPDRC(Alexa Fluor 594)H
B3: doubly-phosphorylated HPV16 ppE7(1–51) (domain or fragment)
chain: MHGDTPTLHEYMLDLQPETTDLYCYEQLND[pS][pS]EEEDEIDGPAGQAEPDRAH
B4: ppE7(1–51)(L15V) (domain or fragment)
chain: MHGDTPTLHEYMLDVQPETTDLYCYEQLND[pS][pS]EEEDEIDGPAGQAEPDRAH

What was measured:
[1] = target: T1, TAZ2 domain (residues 1764–1855) of …; assay: fluorescence polarisation
[2] = target: T1, TAZ2 domain (residues 1764–1855) of …; assay: NMR titration
[3] = target: T1, TAZ2 domain (residues 1764–1855) of …; assay: NMR titration; remark: listed apart in the source
[4] = target: T1, TAZ2 domain (residues 1764–1855) of …; assay: fluorescence polarisation; remark: listed apart in the source

Binder | Kd [1] | binding result [3] | also measured
ETTDLYCYEQLNDSSEEEDE [E7 CR2 peptide (residues 18–37)] | 4.6 ± 0.2 µM | – | Kd [2]: 3.4 µM
B1 | 0.1 ± 0.01 µM | – | –
PETTDLYCYEQLND[pS][pS]EEEDEIDGPAGQAEPDRAH (domain or fragment) [doubly-phosphorylated HPV16 ppE7(17–51)] | – | binds | –
B2 | – | – | Kd [4]: 0.079 µM
B3 | – | binds | –
MHGDTPTLHEYMLDLQPE-NH2 [E7 CR1 peptide (residues 1–18)] | 31 ± 2 µM | – | Kd [2]: 69 µM
B4 | – | binds | –
PETTDLYCYEQLNDSSEEEDEIDGPAGQAEPDRAH (domain or fragment) [HPV16 E7(17–51), unphosphorylated] | 1.8 ± 0.1 µM | – | –

— article PMC8865373 (Biochemistry, 2021)
